Positions count from the first letter of the chain named. One block for each binder: values may come before it.
What was measured:
[1] = target: mouse PD-L1 (Sino Biological, Cat #50010-M08H) (mouse, UniProt Q9EP73 19-238); test: ELISA
[2] = target: T1, rat PD-L1 (Sino Biological, Cat #80450-R08H) (rat, UniProt D4AE25 19-239); test: ELISA
T1 construct: not shown: The vendor's polyhistidine tag

[3] = target: T2, canine PD-L1 (Acro Biosystems, Cat #PDL-C52H4) (canine, UniProt E2RKZ5 19-236); test: ELISA
T2 construct: not shown: The vendor's tag, probably a polyhistidine tag
T2 sequence: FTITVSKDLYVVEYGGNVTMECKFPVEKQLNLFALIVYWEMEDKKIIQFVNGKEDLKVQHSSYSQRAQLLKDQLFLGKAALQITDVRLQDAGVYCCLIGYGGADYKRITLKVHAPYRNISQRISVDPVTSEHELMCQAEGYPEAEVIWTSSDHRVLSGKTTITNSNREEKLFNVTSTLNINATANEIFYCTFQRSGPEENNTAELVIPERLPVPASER

[4] = target: T3, CD80 (Sino Biological, Cat #10698-H08H) (UniProt P33681 35-242); test: ELISA
T3 sequence (looked up): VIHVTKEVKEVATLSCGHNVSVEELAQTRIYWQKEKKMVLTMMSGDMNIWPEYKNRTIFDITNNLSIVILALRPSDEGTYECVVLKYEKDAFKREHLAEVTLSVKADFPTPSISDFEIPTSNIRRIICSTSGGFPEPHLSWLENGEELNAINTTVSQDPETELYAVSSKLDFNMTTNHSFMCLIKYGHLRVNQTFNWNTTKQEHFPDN

[5] = target: T4, CD86 (Sino Biological, Cat #10699-H08H) (UniProt P42081 24-245); test: ELISA
T4 sequence (looked up): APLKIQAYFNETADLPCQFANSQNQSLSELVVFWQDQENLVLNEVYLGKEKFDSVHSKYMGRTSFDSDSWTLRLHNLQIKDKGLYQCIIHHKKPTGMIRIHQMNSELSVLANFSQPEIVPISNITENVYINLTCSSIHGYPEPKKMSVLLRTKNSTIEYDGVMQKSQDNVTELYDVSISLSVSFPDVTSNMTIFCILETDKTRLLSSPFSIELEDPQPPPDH

[6] = target: T5, B7-H3 (Sino Biological, Cat #11188-H08H) (UniProt Q5ZPR3 29-461); test: ELISA
T5 sequence (looked up): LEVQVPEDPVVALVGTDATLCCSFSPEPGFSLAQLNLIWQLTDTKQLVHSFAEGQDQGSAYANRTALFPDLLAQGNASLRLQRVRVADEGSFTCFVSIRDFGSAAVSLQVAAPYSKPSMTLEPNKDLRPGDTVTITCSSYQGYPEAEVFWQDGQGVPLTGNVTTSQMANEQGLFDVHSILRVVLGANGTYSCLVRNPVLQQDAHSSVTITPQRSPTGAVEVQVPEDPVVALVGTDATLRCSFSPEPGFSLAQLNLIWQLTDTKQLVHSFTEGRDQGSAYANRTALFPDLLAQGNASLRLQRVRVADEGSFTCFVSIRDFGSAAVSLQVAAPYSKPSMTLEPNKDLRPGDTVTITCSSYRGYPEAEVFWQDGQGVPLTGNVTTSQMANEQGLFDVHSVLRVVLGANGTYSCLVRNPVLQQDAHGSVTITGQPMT

[7] = target: T6, PD-L2 (Sino Biological, Cat #10292-H08H) (UniProt Q9BQ51 20-219); test: ELISA
T6 sequence (looked up): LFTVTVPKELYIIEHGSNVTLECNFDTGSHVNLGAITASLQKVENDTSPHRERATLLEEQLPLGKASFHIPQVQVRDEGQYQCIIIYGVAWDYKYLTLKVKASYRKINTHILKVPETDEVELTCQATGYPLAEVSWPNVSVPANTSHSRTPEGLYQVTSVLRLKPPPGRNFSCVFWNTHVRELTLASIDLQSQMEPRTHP

[8] = target: T7, human PD-L1-His (Sino Biological, Cat #10084-H08H) (human, UniProt Q9NZQ7 19-238); test: ELISA, coated human PD-L1-His
T7 construct: Bought protein; also called human PD-L1 ECD-His; recombinant human PD-L1-His protein; not shown: His tag
Description: Briefly, Maxisorp plates (Nunc) were coated with 100 ul/well of 0.5 μg/ml human PD-L1-His (Sino Biological, Cat #10084-H08H) or cynomolgus PD-L1-His (Sino Biological, Cat. 90251-C08H) protein diluted in 1×PBS (GIBCO) overnight at 4° C. Plates were washed three times with 300 μl/well washing buffer (1×PBST, diluted from 20×PBST (Thermo Scientific) with distilled water)) and then blocked with 300 μl/well of blocking buffer (1×PBST/I % BSA) for 2 hours at RT on shaker (100 rpm). Plates were washed and added with 100 μl/well of testing antibodies, which were serial diluted with assay buffer (PBST/1% BSA). The antibodies were incubated at room temperature for 2 hours on plate shaker at 100 rpm. Plates were washed. One hundred microliter of horseradish peroxidase (HRP) conjugated detection antibody was added into each well and incubated at room temperature for 1 hour on plate shaker at 100 rpm. Plates were washed and added with 100 μl/well TMB substrate for color development at room temperature in dark for up to 10 minutes. After addition of 50 μl/well of stop solution (1N H₂SO₄), plates were read at 450 nm on a plate reader (SpectraMax M5).
(§1) Anti-HEL isotype control (Biolntron) was used as negative control.

[9] = target: T8, cynomolgus PD-L1-His (Sino Biological, Cat. 90251-C08H) (cynomolgus, UniProt Q9NZQ7 19-238 (human entry)); test: BLI (Gator), cynomolgus PD-L1
T8 construct: Bought protein; also called Cyno PD-L1; Cynomolgus PD-L1 ECD-His; not shown: His tag

[10] = target: T9, human PD-L1 expressed on cell surface (human, UniProt Q9NZQ7 19-290); test: flow cytometry, MDA-MB-231-GFP cells
T9 construct: also called cell surface PD-L1
Description: Cells were then resuspended in FACS buffer (1×DPBS/1% FBS) at 10⁶/ml concentration. One hundred microliter (100 μl) of cells were aliquoted into a single well in 96 well plates. The antibodies to be tested were serially diluted at 1:3 fold starting at 15 ug/mL and were then added into each well. The antibodies were mixed with cells and the mixtures were incubated on ice for 1 hour. […] After washing with FACS buffer, stained cells were resuspended at diluted […] (Biolegend, Cat #420404, used at 1:100 dilution) and analyzed on Guava 11HT (Luminex). Data was analyzed using Flowjo software.
as §1

T1 sequence (D4AE25 entry or part of it R08H R08H limits assumed): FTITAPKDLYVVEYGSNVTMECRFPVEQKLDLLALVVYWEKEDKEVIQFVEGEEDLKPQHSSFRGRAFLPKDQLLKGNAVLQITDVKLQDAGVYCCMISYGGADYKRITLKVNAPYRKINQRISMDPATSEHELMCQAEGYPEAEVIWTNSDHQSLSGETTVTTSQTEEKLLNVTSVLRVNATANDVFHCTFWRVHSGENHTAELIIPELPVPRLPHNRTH
T8 sequence (Q9NZQ7 other isoform, or with tags, fused parts or gaps C08H C08H limits assumed): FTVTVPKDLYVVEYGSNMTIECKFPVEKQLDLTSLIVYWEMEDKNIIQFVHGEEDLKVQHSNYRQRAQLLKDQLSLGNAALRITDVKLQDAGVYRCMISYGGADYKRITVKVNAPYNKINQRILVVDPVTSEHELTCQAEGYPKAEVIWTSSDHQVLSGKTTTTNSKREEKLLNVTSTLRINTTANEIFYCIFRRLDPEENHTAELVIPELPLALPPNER
T9 sequence (Q9NZQ7 19-290 limits assumed): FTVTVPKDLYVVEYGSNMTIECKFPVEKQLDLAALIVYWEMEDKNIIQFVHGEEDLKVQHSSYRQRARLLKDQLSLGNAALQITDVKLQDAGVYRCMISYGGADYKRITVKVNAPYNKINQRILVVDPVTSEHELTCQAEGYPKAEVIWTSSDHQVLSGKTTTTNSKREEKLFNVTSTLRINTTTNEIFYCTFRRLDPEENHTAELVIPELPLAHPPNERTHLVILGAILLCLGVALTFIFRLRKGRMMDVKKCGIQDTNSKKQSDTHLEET
T7 sequence (Q9NZQ7 19-238): as the sequence (Q9NZQ7 other isoform, or with tags, fused parts or gaps C08H C08H limits assumed) above, with T33A, S34A, N62S, Q68R, R82Q, L173F, A185T, I192T, L215H counted along it
Chain of mouse PD-L1 (Sino Biological, Cat #50010-M08H) (Q9EP73 19-238 limits assumed, stated change not applied): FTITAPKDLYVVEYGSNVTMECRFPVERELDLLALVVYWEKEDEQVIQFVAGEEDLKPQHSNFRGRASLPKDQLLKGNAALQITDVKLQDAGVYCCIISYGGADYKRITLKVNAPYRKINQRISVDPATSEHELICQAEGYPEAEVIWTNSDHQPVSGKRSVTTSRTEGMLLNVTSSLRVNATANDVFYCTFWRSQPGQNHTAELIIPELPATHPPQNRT

binding result [1]: no binding | binding result [2]: no binding | binding result [3]: no binding | binding result [4]: no binding | binding result [5]: no binding | binding result [6]: no binding | binding result [7]: no binding | EC50 [8]: 0.0199 nM | Kd [9]: 0.03 nM | koff [9]: 1.1e-05 s⁻¹ | kon [9]: 307000 M⁻¹ s⁻¹ | EC50 [10]: 2.93 nM
B2: 55H3/76D6 (antibody, human IgG1, V domains shown)
VH: QEQLEESGGGLVQPEGSLTLTCTVSGFSFSGDYYMSWVRQAPGKGLEWVASIYTGSLNSYYATWAKGRFTISLTSSTTVTLQMTSLTAADTATYFCARRNKNADYGHFDLWGPGTLVTVSS
VL: YDMTQTPASVEVAVGGTVTIKCQASESINDRLAWYQQKPGQPPKLLIYAASTLASGVPSRFRGSGSGTDFTLTISDLECADAATYYCQQGWTVSSLDNAFGGGTEVVAM

binding result [1]: no binding | binding result [2]: no binding | binding result [3]: no binding | binding result [4]: no binding | binding result [5]: no binding | binding result [6]: no binding | binding result [7]: no binding | EC50 [8]: 0.024 nM | kon [9]: 313000 M⁻¹ s⁻¹ | EC50 [10]: 2.03 nM
B5: 62E6 (antibody, human IgG1, V domains shown)
VH: B2 VH with G10D, Q13K, V24A, V49I, S59I
VL: B2 VL with E26Q, G40R, A49G, R62K, D69E, A80V, M109K

binding result [1]: no binding | binding result [2]: no binding | binding result [3]: no binding | binding result [4]: no binding | binding result [5]: no binding | binding result [6]: no binding | binding result [7]: no binding | EC50 [8]: 0.0172 nM | Kd [9]: 0.25 nM | koff [9]: 8.7e-05 s⁻¹ | kon [9]: 349000 M⁻¹ s⁻¹ | EC50 [10]: 0.19 nM
B9: 56H3 (antibody, human IgG1, V domains shown)
VH: QEQLVESGGGLVQPEGSLTLTCTASEFSFSNNYYMSWVRQAPGKGLEWLGSIGIGSGITDYASWAKGRFTISKASSTTVTLQMTTLTAADTAIYFCARWTSGGGGFGLWGPGTLVTVSS
VL: QVLTQTSSPVSAAVGGTVTINCQSSQTIYSDYLFWYQQKPGQPPKLLIYQTSTLASGVPSRFSGSGSGTQFTLTISGVQCDDAATYYCQGYYSGYIWTFGGGTEVVVN

The remaining lines, values behind:

B1: 74F4 (antibody, human IgG1, V domains shown)
VH: B2 VH with V24A, V49I, S59T
VL: B2 VL with E26Q, K38S, A49G, R62K, M109K
binding result [1]: no binding | binding result [2]: no binding | binding result [3]: no binding | binding result [4]: no binding | binding result [5]: no binding | binding result [6]: no binding | binding result [7]: no binding | EC50 [8]: 0.0157 nM | Kd [9]: 0.01 nM | koff [9]: 5e-06 s⁻¹ | kon [9]: 387000 M⁻¹ s⁻¹ | EC50 [10]: 1.44 nM

B3: 69D10 (antibody, human IgG1, V domains shown)
VH: B2 VH with V24A, Y33W, V49I, T54S, S59T, I71V
VL: B2 VL with E26Q, N29G, D30N, R31A, A50T, R62K, D69E, A80G, M109K
binding result [1]: no binding | binding result [2]: no binding | binding result [3]: no binding | binding result [4]: no binding | binding result [5]: no binding | binding result [6]: no binding | binding result [7]: no binding | EC50 [8]: 0.0215 nM | Kd [9]: 0.18 nM | koff [9]: 7.7e-05 s⁻¹ | kon [9]: 428000 M⁻¹ s⁻¹ | EC50 [10]: 2 nM

B4: 56E5 (antibody, human IgG1, V domains shown)
VH: B2 VH with V24A, V49I, S59T, N100H
VL: B2 VL with A8G, E26Q, K38T, A49G, R62K, D69E, M109K
binding result [1]: no binding | binding result [2]: no binding | binding result [3]: no binding | binding result [4]: no binding | binding result [5]: no binding | binding result [6]: no binding | binding result [7]: no binding | EC50 [8]: 0.0184 nM | Kd [9]: ≤ 0.03 nM | koff [9]: ≤ 1e-05 s⁻¹ | kon [9]: 313000 M⁻¹ s⁻¹ | EC50 [10]: 1.29 nM

B6: 57F11 (antibody, human IgG1, V domains shown)
VH: QEHLEESGGGLVQPEGALTLTCTASGFSFSGDYYMSWVRQAPGKGLEWIASIYTGSLNTYYATWAKGRFTISIASSTTVTLQVTSLTAADTATYFCARRTKNGDYGYFDLWGPGTLVTVSS
VL: B2 VL with E26Q, R62K, D69E, D97E, M109K
binding result [1]: no binding | binding result [2]: no binding | binding result [3]: no binding | binding result [4]: no binding | binding result [5]: no binding | binding result [6]: no binding | binding result [7]: no binding | EC50 [8]: 0.0216 nM | Kd [9]: 0.27 nM | koff [9]: 0.000101 s⁻¹ | kon [9]: 373000 M⁻¹ s⁻¹ | EC50 [10]: 1.24 nM

B7: 57B10 (antibody, human IgG1, V domains shown)
VH: B2 VH with V24A, G31D, V49I, S59T, Y105W
VL: B2 VL with E26Q, N29S, D30T, R31A
binding result [1]: no binding | binding result [2]: no binding | binding result [3]: no binding | binding result [4]: no binding | binding result [5]: no binding | binding result [6]: no binding | binding result [7]: no binding | EC50 [8]: 0.0186 nM | Kd [9]: 0.03 nM | koff [9]: 7e-06 s⁻¹ | kon [9]: 284000 M⁻¹ s⁻¹ | EC50 [10]: 4.82 nM

B8: 27A2 (antibody, human IgG1, V domains shown)
VH: B9 VH with V5E, E26G, N31S, Y33H, L49I, I54V, V79L
VL: B9 VL with K39T, S63K, Q70E, G77E, V78I, N108R
binding result [1]: no binding | binding result [2]: no binding | binding result [3]: no binding | binding result [4]: no binding | binding result [5]: no binding | binding result [6]: no binding | binding result [7]: no binding | EC50 [8]: 0.0146 nM | Kd [9]: 0.03 nM | koff [9]: 1.3e-05 s⁻¹ | kon [9]: 390000 M⁻¹ s⁻¹ | EC50 [10]: 0.14 nM

Source: patent US20250171542A1 (ADEPT THERAPEUTICS, published 2025)
